In PMC10986514:

Target: SARS-CoV-2 RBD single mutant E484K (SARS-CoV-2) (UniProt P0DTC2)
Experiment: peptide or protein array

Substance: Tri-TMH multimodular nanobody (Ty1, MR17-K99Y and H11-H4 modules) (VHH)
- percent decrease of the binding signal against wild-type RBD: 60%

Substance: Tri-TMV multimodular nanobody (Ty1, MR17-K99Y and VHH V modules)
- percent decrease of the binding signal against wild-type RBD: 40%

Substance: Tri-Ty1 multimodular nanobody (three Ty1 modules) (VHH)
- percent decrease of the binding signal against wild-type RBD: 96%
